Laboratory results published in patent US20230324413A1, “RENIN-BASED ANALYSIS OF HEPCIDIN” (TAMPERE UNIVERSITY FOUNDATION SR, priority 2020, published 2023).

Target: T1, human renin (Homo sapiens, UniProt P00797)
T1 construct: purchased Biovision, Inc. San Francisco, CA
T1 sequence (P00797 67-406): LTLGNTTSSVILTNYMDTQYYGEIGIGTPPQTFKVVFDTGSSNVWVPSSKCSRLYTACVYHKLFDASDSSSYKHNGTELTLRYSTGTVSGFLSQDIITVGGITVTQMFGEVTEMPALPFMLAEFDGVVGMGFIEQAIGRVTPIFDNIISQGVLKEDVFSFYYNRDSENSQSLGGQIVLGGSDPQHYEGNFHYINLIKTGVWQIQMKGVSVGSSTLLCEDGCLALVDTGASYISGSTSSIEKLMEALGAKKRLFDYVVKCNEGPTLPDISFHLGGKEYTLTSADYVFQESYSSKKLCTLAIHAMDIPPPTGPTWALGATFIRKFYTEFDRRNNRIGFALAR
Assay: Renin inhibition screening kit, kinetic fluorescence measurement of renin enzyme activity
Assay type: biochemical
Conditions: for Inhibition of renin activity (in words): 10 nM, 100 nM and 500 nM, FIG. 5; for Mean inhibitory effect on renin activity: 37° C, 60 min kinetic fluorescence
Text: Human hepcidin-25/LEAP-1 (hep-25, with disulfide bonds between Cys7-Cys23, Cys10-Cys13, […], and Cys14-Cys22, purity assessed by HPLC≥98.0%) was purchased from Peptides International (Peptides International Inc, Louisville, KY). N-terminal part of hepcidin, DTHFPICIF (hep-9; SEQ ID NO: 6) and DTHFP (hep-5; SEQ ID NO: 7), were synthetized by Proteogenix (Schiltigheim, France). Renin inhibition screening kit was purchased from Biovision (Biovision, Inc. San Francisco, CA). ForteBio's 96 well black plates were used in the measurements.
Hep-25, hep-9, and hep-5 were used in final sample concentrations of 10 nM, 100 nM and 500 nM to measure inhibition of renin enzyme activity. The concentrations used represent normal levels of hepcidin in human circulation. Fluorescence measurement was performed using Perkin Elmer UV/VIS Envision multimode plate reader. Excitation and emission wavelengths were 328 and 552 nm, respectively. Fluorescence was recorded every 60 s for 60 min at 37° C. Rate of renin inhibition was calculated following the manufacture's instructions.

Inhibition of renin activity (in words)	Mean inhibitory effect on renin activity (peptide concentration 10 nM)	Mean inhibitory effect on renin activity (peptide concentration 100 nM)	Mean inhibitory effect on renin activity (peptide concentration 500 nM)	Substance
inhibited renin activity	41.25%	41.15%	42.65%	DTHFPICIF [hepcidin-9]
inhibited renin activity	50.1%	50.0%	58.6%	DTHFP [hepcidin-5, N-terminal part of hepcidin, 5 amino acids, synthetized by Proteogenix]
–	20.4%	29.2%	38.3%	hepcidin-25: mature bioactive 25 amino acid hepcidin peptide, SEQ ID NO: 1; purchased from Peptides International
